This passage reports stoichiometry N results from paper PMC8961635.

Assay [1] concerns the target LarE from Methanococcus maripaludis (Methanococcus maripaludis). Briefly: SEC-MALS; apo-form (as-purified protein, <5% cluster); 100 µL at ~2 mg·mL^−1 injected on Superdex 200 increase 10/300 GL, 0.5 mL·min^−1, 25 mM HEPES pH 7.5, 300 mM NaCl, 5 mM DTT; monomer or dimer.
Assay [2] shares this target. Briefly: SEC-MALS; holo-form ([4Fe-4S] cluster reconstituted anaerobically; analysed aerobically immediately after thawing); 100 µL at ~2 mg·mL^−1 injected on Superdex 200 increase 10/300 GL, 0.5 mL·min^−1, 25 mM HEPES pH 7.5, 300 mM NaCl, 5 mM DTT; monomer or dimer. A general note: SEC sorts molecules by how far they enter the pores of the column.
A further assay concerns the target human CISD2 (human). Put plainly: SEC-MALS; holo-form ([2Fe-2S] cluster bound); 100 µL at ~2 mg·mL^−1 injected on Superdex 200 increase 10/300 GL, 0.5 mL·min^−1, 50 mM sodium phosphate pH 7.5, 50 mM NaCl, 10 mM DTT; monomer or dimer.
The target of assay [3] is CyuA from Methanococcus maripaludis (Methanococcus maripaludis). Put plainly: SEC-MALS; apo-form (as-purified protein, <5% cluster); 100 µL at ~2 mg·mL^−1 injected on Superdex 200 increase 10/300 GL, 0.5 mL·min^−1, 25 mM HEPES pH 7.5, 300 mM NaCl, 5 mM DTT; monomer or dimer.
The target is the same in assay [4]. Briefly: SEC-MALS; holo-form ([4Fe-4S] cluster reconstituted anaerobically; analysed aerobically immediately after thawing); 100 µL at ~2 mg·mL^−1 injected on Superdex 200 increase 10/300 GL, 0.5 mL·min^−1, 25 mM HEPES pH 7.5, 300 mM NaCl, 5 mM DTT; monomer or dimer.
For another assay, the target named is human mitoNEET (human). Briefly: SEC-MALS; holo-form ([2Fe-2S] cluster bound); 100 µL at ~2 mg·mL^−1 injected on Superdex 200 increase 10/300 GL, 0.5 mL·min^−1, 50 mM sodium phosphate pH 7.5, 50 mM NaCl, 10 mM DTT; monomer or dimer.

In the case of “LarE from Methanococcus maripaludis (enzyme)”, the stoichiometry N in assay [1] and in assay [2] was 2 in each case. In the assay with human CISD2 (human), human CISD2 (domain or fragment) showed a stoichiometry N of 2. Turning to “CyuA from Methanococcus maripaludis (enzyme)”, the stoichiometry N in assay [3] and in assay [4] was 2 throughout. Consider human mitoNEET (domain or fragment), for which the stoichiometry N in the assay with human mitoNEET (human) is 2.

By stoichiometry N is commonly meant a count of units in the complex or per binding partner.
